Earlier results in publication PMC10747851.
pKd: −log10 of the molar value.

Target: TfR (Homo sapiens) (UniProt P02786)
Sequence (P02786 89-760): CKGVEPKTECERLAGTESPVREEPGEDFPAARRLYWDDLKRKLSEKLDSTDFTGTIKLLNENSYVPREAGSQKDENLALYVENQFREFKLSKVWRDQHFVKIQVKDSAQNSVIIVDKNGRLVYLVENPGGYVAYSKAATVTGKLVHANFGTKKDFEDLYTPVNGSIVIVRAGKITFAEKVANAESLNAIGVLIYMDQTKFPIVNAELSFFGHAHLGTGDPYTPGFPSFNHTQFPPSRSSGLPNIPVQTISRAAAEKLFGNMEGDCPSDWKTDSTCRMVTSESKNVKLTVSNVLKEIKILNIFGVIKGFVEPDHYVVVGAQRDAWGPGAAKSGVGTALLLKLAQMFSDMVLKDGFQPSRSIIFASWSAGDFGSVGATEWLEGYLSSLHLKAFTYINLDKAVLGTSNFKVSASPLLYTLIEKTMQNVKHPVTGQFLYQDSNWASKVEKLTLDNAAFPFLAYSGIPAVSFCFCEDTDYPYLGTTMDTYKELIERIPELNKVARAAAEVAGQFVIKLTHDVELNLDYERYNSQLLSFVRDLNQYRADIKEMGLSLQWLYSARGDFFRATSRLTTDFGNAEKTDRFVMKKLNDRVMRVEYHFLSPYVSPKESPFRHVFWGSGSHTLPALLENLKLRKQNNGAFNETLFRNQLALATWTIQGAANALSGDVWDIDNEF

pKd: 8.00
Substance: T7 peptide
